Measurements from patent US20190376053A1 (BOARD OF TRUSTEES OF THE UNIVERSITY OF ARKANSAS, published 2019).

B1: collagen-binding domain s3b derived from Clostridium histolyticum class I collagenase ColG (other)
chain: GNEKLKEKENNDSSDKATVIPNFNTTMQGSLLGDDSRDYYSFEVKEEGEVNIELDKKDEFGVTWTLHPESNINDRITYGQVDGNKVSNKVKLRPGKYYLLVYKYSGSGNYELRVNK
notes: domain: s3b; also called ColGS3b; CBD (s3b)
B2: tandem collagen-binding domain (s3a-s3b) derived from Clostridium histolyticum class I collagenase ColG (other)
chain: PITKEMEPNDDIKEANGPIVEGVTVKGDLNGSDDADTFYFDVKEDGDVTIELPYSGSSNFTWLVYKEGDDQNHIASGIDKNNSKVGTFKSTKGRHYVFIYKHDSASNISYSLNIKGLGNEKLKEKENNDSSDKATVIPNFNTTMQGSLLGDDSRDYYSFEVKEEGEVNIELDKKDEFGVTWTLHPESNINDRITYGQVDGNKVSNKVKLRPGKYYLLVYKYSGSGNYELRVNK

Columns and labels:
[1] = target: T1, collagen fibril (porcine skin fiber, Nippi, Inc) (porcine); test: collagen fibril binding assay (spin column, SDS-PAGE of the unbound protein, Scatchard plot)
T1 construct: also called collagen fiber; insoluble collagen fibril

[2] = target: rat collagen (collagen type I) (rat, UniProt P02454 152-1207; P02466 86-1125); test: cell-based or functional assay
rat collagen (collagen type I), sequence (P02454 152-1207 limits assumed, chain 1 of 2): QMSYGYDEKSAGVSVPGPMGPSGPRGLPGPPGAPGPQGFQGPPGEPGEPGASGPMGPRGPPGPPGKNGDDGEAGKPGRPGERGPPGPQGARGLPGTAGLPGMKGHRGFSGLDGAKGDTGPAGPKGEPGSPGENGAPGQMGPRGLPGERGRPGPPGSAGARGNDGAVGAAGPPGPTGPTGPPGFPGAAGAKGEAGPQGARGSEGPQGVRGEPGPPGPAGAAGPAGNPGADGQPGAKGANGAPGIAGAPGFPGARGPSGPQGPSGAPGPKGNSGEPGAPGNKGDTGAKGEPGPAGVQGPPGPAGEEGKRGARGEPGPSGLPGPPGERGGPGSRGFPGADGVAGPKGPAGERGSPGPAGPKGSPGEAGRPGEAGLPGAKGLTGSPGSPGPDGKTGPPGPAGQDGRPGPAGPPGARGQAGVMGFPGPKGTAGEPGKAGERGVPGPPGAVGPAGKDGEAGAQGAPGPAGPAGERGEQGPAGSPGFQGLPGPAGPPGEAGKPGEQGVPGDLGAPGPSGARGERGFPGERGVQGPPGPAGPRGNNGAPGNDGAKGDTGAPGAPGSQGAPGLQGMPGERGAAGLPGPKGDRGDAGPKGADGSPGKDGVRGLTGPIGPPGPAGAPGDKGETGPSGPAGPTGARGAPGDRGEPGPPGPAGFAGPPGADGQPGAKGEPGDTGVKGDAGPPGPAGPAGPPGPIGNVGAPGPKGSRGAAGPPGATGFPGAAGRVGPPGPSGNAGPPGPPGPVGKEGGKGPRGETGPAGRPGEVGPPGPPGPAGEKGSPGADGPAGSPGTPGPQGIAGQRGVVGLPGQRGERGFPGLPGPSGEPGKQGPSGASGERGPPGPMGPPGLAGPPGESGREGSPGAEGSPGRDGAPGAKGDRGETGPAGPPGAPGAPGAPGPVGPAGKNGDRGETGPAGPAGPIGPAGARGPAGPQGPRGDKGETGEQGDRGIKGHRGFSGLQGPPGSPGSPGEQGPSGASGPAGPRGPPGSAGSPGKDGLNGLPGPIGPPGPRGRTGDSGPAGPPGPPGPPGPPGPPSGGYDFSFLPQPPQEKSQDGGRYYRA
rat collagen (collagen type I), sequence (P02466 86-1125 limits assumed, chain 2 of 2): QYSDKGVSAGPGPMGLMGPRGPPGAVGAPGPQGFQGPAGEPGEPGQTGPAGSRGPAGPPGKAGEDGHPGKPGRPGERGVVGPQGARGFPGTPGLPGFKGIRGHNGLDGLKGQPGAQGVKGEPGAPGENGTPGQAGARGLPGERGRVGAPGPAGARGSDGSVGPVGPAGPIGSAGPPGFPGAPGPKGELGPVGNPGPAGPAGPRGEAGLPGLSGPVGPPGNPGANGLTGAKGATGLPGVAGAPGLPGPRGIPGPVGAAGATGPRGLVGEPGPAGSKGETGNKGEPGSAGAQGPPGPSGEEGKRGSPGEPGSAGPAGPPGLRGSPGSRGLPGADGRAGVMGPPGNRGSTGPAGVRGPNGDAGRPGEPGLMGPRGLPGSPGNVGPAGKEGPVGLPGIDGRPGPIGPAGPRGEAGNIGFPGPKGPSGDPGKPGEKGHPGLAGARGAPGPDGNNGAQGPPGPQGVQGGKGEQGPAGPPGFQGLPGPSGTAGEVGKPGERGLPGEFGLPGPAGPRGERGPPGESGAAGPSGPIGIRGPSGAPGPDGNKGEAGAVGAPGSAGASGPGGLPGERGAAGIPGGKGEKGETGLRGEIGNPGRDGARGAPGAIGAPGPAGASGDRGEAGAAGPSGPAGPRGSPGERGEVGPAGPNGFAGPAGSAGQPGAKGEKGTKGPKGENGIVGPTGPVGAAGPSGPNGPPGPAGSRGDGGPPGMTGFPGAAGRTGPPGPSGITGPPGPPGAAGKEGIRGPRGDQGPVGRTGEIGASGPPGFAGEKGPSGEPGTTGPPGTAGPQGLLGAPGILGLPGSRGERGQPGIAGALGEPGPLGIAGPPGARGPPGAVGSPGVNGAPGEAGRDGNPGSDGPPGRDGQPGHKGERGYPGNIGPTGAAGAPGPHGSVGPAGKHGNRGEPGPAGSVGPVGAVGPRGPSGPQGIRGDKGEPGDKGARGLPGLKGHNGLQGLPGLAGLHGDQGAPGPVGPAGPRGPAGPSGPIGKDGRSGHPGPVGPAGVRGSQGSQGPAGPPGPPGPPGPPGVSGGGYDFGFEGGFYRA

Row | Binder | Kd [1] [µM] | collagen fibril thickness against the collagen control, 5:1 ratio [2] [% less] | fibril growth, absorption, higher ratios of tandem CBD [2] | fibril growth, absorption, lower ratios of CBD [2]
1 | B1 | ~100 |  |  | 
2 | B2 |  | 2 | 0.005 | 0.0217
